Source: US20070065878A1
Values joined by “and” are separate entries in the source; they are usually repeats but may differ in a detail not shown here. Equal values may be shown once.

Tests used:
[1] = system: T1, CyPet-YPet substrate with recognition sequence SGDRMW (EP4.3)
T1 sequence: SGDRMWHHHHHH

EP 4.1 = system: T2, EP 4.1
T2 sequence: SVDYRFLGS

[2] = system: T3, negative control displaying the sequence GGQSGQ
T3 sequence: GGQSGQ

EP 4.3 = system: T4, EP 4.3
T4 sequence: SSGDRMWGG

EP 4.4 = system: T5, EP 4.4
T5 sequence: SEYDRQLGS

[3] = system: T6, Canonical (enteropeptidase substrate)
T6 sequence: DDDDKGGQS

EP 4.9 = system: T7, EP 4.9
T7 sequence: SVLDRWMGG

EP 2.5 = system: T8, EP 2.5
T8 sequence: MSGERMGGS

EP 4.7 = system: T9, EP 4.7
T9 sequence: GSDDRRAGG

EP 4.8 = system: T10, EP 4.8
T10 sequence: VRDYRMGGQ

[4] = system: T11, Dabcyl-SGDRMW(E-Edans)-amide
T11 sequence: SGDRMW

EP 4.6 = system: T12, EP 4.6
T12 sequence: SSGERMMGG

EP 2.2 = system: T13, EP 2.2
T13 sequence: AAVERWGGS

EP 4.10 = system: T14, EP 4.10
T14 sequence: GSSERAAAG

EP 4.2 = system: T15, EP 4.2
T15 sequence: MHGERMGGS

EP 3.6 = system: T16, EP 3.6
T16 sequence: GSSDRARVW

[5] = system: T17, VPVVM (MMP substrate, 5X library)
T17 sequence: VPVVM

[6] = system: T18, VPVNM (MMP substrate, 5X library)
T18 sequence: VPVNM

[7] = system: T19, MPVVL (MMP substrate, 5X library)
T19 sequence: MPVVL

[8] = system: T20, PVAMR (MMP substrate, 5X library)
T20 sequence: PVAMR

[9] = system: T21, PVPMV (MMP substrate, 5X library)
T21 sequence: PVPMV

[10] = system: T22, VPLNM (MMP substrate, 5X library)
T22 sequence: VPLNM

[11] = system: T23, PVNVV (MMP substrate, 5X library)
T23 sequence: PVNVV

[12] = system: T24, TPLAL (MMP substrate, 5X library)
T24 sequence: TPLAL

[13] = system: T25, PMAVI (MMP substrate, 5X library)
T25 sequence: PMAVI

[14] = system: T26, MPLVM (MMP substrate, 5X library)
T26 sequence: MPLVM

[15] = system: T27, VPMVV (MMP substrate, 5X library)
T27 sequence: VPMVV

[16] = system: T28, PMAVT (MMP substrate, 5X library)
T28 sequence: PMAVT

[17] = target: T29, Canonical (caspase-3 substrate)
T29 chain: QDEVDGGQS
Throughout, for % Conversion: test concentration or dose not given here.

catalytic subunit light chain of enteropeptidase
cleavage rate of the CyPet-YPet fusion by fluorimetry, relative to DDDDK [1]: cleaved at a rate 17-fold faster than DDDDK | Conversion (fraction converted) (EP 4.1): 0.84 | change in fluorescence (SA-PE label) after incubation with enteropeptidase [2]: exhibited minimal change in fluorescence | Conversion (fraction converted) (EP 4.3): 0.97 | Conversion (fraction converted) (EP 4.4): 0.71 | Conversion (fraction converted) [3]: 0.15 | decrease in mean fluorescence intensity (SA-PE label) after incubation with enteropeptidase [3]: 20 fold | Conversion (fraction converted) (EP 4.9): 0.72 | Conversion (fraction converted) (EP 2.5): 0.84 | Conversion (fraction converted) (EP 4.7): 0.91 | Conversion (fraction converted) (EP 4.8): 0.87 | kcat/KM of the synthetic fluorogenic peptide, relative to DDDDK [4]: > 5 fold | Conversion (fraction converted) (EP 4.6): 0.93 | Conversion (fraction converted) (EP 2.2): 0.69 | Conversion (fraction converted) (EP 4.10): 0.78 | Conversion (fraction converted) (EP 4.2): 0.84 | Conversion (fraction converted) (EP 3.6): 0.86

matrix metalloprotease-1
% Conversion (fraction (head says % Conversion)) [5]: 0.366 | % Conversion (fraction (head says % Conversion)) [6]: 0.76 | % Conversion (fraction (head says % Conversion)) [7]: 0.428 | % Conversion (fraction (head says % Conversion)) [8]: 0.729 | % Conversion (fraction (head says % Conversion)) [9]: 0.496 | % Conversion (fraction (head says % Conversion)) [10]: 0.844 and 0.61 | % Conversion (fraction (head says % Conversion)) [11]: 0.789 | % Conversion (fraction (head says % Conversion)) [12]: 0.417 | % Conversion (fraction (head says % Conversion)) [13]: 0.699 | % Conversion (fraction (head says % Conversion)) [14]: 0.659 | % Conversion (fraction (head says % Conversion)) [15]: 0.814 and 0.443 | % Conversion (fraction (head says % Conversion)) [16]: 0.504

B1: caspase-3 (protein)
chain: MENTENSVDSKSIKNLEPKIIHGSESMDSGISLDNSYKMDYPEMGLCIIINNKNFHKSTGMTSRSGTDVDAANLRETFRNLKYEVRNKNDLTREEIVELMRDVSKEDHSKRSSFVCVLLSHGEEGIIFGTNGPVDLKKITNFFRGDRCRSLTGKPKLFIIQACRGTELDCGIETDSGVDDDMACHKIPVEADFLYAYSTAPGYYSWRNSKDGSWFIQSLCAMLKQYADKLEFMHILTRVNRKVATEFESFSFDATFHAKKQIPCIVSMLTKELYFYH
Conversion (fraction converted) [17]: 0.95
